Results on one molecule are retold here after PMC8064889 (Cell Reports, 2021).

Assay [1] deals with SARS-CoV-2 RBD, His6-tagged, for biolayer interferometry (SARS-CoV-2, UniProt P0DTC2). The assay is described as follows: BLI. The following applies: both partners purified.
Assay [2] deals with Avi-tag biotinylated RBD of SARS-CoV-2 S protein (SARS-CoV-2, UniProt P0DTC2). The assay can be described thus: flow cytometry on cells. The following applies: both partners purified.

B1: 47D1 IgG (antibody, V domains shown)
VH: QVQLVQSGAEVKKPGSSVRVSCKASGGTFSTYPISWVRQAPGQGLEWMGGIIPIFGTAKSAQKFQGRVTITADEFTSTAYMEMSSLRSEDTAMYYCAREGRRYGSGWYISTGYFDYWGQGTLVTVSS
VL: QLVLTQPASVSGSPGQSIIVSCTGTSSDVGGYKFVSWYQQHPGKAPRVMIYDVSNRPSGVSNRFSGSKSGNTASLTISGLQADDEADYYCSSYTNSSTVVFGGGTKVTVL
Turning to B1, the binding result in assay [1] and in assay [2] was “binds” throughout.
